Data as given in the DeepSol protein solubility set.

Experiment: soluble on expression in E. coli; label from the status in PepcDB or PDB records
With “MAHHHHHHMGSKHPRGSTSAPAHEEEQQAHVDTEHHTEPPSFTAGPEVAEMQVTVTPTMPPTSMEQASMTVSGEGPSTLAVPKQQHLRHKSFTMTEVQQLISVNPDRTLVIIRDKVYDVTTFLASHPGGKSALRRNNGKDVTDAFFSMHSAMAVRKLPDFLIGELAPPESTSAAGEETPTAALVPARLRMADITKALSEDLNRIILILFSDAYDVTSMRDKHPGGLSVLVNNNGRECGDTFMRIHGLLAKEMVKQFYLGPVEGLAQGRSPLRPAVAAEVESTAITPAGPKAQSTRILEIESVNSTVTIRYFTFSCPKPLYMIPGGHIKLYSNLHEKESRFYTPFKTGVSSFTICMKHYPNGRTSGYLFDLKEGDEVFFDGPLPPSWQLNTDAAVQRAAPEERHVVLVGGGTGIAPLYSMSSNALETQFSSVTLVCSVRTPDDLILATELRQLANRYSTALPIQKHTLRIVLLFSRASPQDISVESTSFASHVLCGGRLTAESFKGTEIHPAQAVVVCGPPTFNDAVAAAVLEAGICTATQVHHL” the “soluble on expression in E. coli” value was “not soluble”. For “MEDKLITLAILTYAKAQILKNVLENEGIEAYIHNVNLIQPVISSGVRLRIKESDLPHALQIIESSAWLSEDIIKGKESSSERNKEKRKVLIPIDFSNYSLKACQFGFSFANAINSEVVLLHAYFSPIYVPTIPYGTDNFNFQIEREESVKSMIETVHNELNKLSDTIKKKVESGEFPNIKYTCILRDGIPEEEILRYAKEYNPQIIIMGTRGRSQKDIDLIGSVTAEVIERSKSFVYAIPEHTPLKTFNDIKKVAFVTNFDQRDLIAFDSLINAFKSFHFAVSFIHLSTDNDAWNEIKLAGIKDYFQKQYSKLELYYNVVKEDNILNNLDNYVKEENIDVICITNYKRNIFARLFNPSIARKMIFHANTPILVIK”, the “soluble on expression in E. coli” value was “not soluble”. In the case of “MLILDYTKLKVTFMTMHHPNLQQHDRPQAISRSYLDIRHVVKQFGSFTALKEISLSIEKGEFVCFLGPSGCGKTTLLRAIAGLDLPTSGTIHQNQQAITFLPPEQRDFGIVFQSYALFPNLTVEENIAIGLRNQGMSVRDALEKVEQWLEMIGLATSAQKYPSQLSGGQQQRVALARALALSPGLLLLDEPLSALDAKVRTHLREEICQLQRKLGITTIMVTHDQEEALTMADRIVVMNHGVIEQVGTPQEIYQKPASRFVAEFVGTMNFIPVSMASSQQLRIAESLIALPKIENYTPCQGEQFDLAVRPENLELVTRYNEAIPVVIRHLEFLGAFYRVECVFQGERLAPPVYVDLPITQVQTMNLKAGDVRYLALRAGQLRAYRRKVMSTTPAATASCAYAA”, the “soluble on expression in E. coli” value is reported as “not soluble”. For “NGAQAFVSAQTSTIPKTAFTAHDFVDYTLPQEQKGKEQKEQQWMKNSQTKDTDVHPYADFAVLEILLFPDSSTDRKIFNHFIQPAIRAYKQLGDSLNIFANQTLDQPKHNRYYLLGYPFLRNKAASLFLNQTEQR”, the “soluble on expression in E. coli” value was “soluble”. In the case of “MGSSHHHHHHSSGLVPRGSHMNKPIGVIDSGVGGLTVAKEIMRQLPNETIYYLGDIGRCPYGPRPGEQVKQYTVEIARKLMEFDIKMLVIACNTATAVALEYLQKTLSISVIGVIEPGARTAIMTTRNQNVLVLGTEGTIKSEAYRTHIKRINPHVEVHGVACPGFVPLVEQMRYSDPTITSIVIHQTLKRWRNSESDTVILGCTHYPLLYKPIYDYFGGKKTVISSGLETAREVSALLTFSNEHASYTEHPDHRFFATGDTTHITNIIKEWLNLSVNVERISVND”, the “soluble on expression in E. coli” value is reported as “soluble”. For “MIPEPDILVVGGGLGGVAAALAACRAGRSVVLTEETDWIGGQLTSQAVPPDEHPWVEQFGTTATYRRLREGIRQYYRQWYPLRAEAAALTDLNPGAGRVSKLCHEPRVALAVLEGMLAPHRAAGRLTVLTEHRPVAAETDNDVVRAVTLEDLRDGTRRTVPARYVLDATETGELLHLAGVEHVNGAESRAEFDEPHAPDRAQPGNQQGITVCFALSHHEGEDHTIDRPADYDFWRDYKPDFWPGPLLGFEAPDPRTLEPVPRTFEPNPDLDPLAVSADQSADAGDKELWGFRRILARKLHTDGAFDSDITLVNWPLNDYWLKPYIGQEAEALREARQLSLSVLYWLQTEAPRTDGGTGFPGLRPRPDVTGTADGLAKAAYVRESRRIKAVTTVTEHDVSIDLLGPYGRTRHRDSVGVGNYRIDLHPSTGGDGYVDIGSVPFEIPLGALVPRRVRNLLPAGKNLGTTHITNGCYRLHPVEWNVGEVAGALAAHCLAEDVEPHQVQAEDKRFEEFARVLDHDGVQRHWPDVRGYLEHHHHHH”, the “soluble on expression in E. coli” value was “not soluble”. In the case of “MGHHHHHHGGHMSLIDLHIHSNYSDGQGSVEEIARRAKERGLKAIAIVDHSIELPFGLTEKKARMREIEIENAASLYGIKIYSGIECSINAAGEIVLPDFDFDFIIASVHEFVYGQAYYERVIRCLESHDVDVLGHPFSPLFGFDGRLAEMDEKLLDVVEERGVAVELNSSHKSPQDEFLQLCRDRKIAYSIGSDAHSLSGVGEVGWSVEKAKRYMAGAKLFTPEGGS”, the “soluble on expression in E. coli” value is reported as “soluble”. For “MKFLKNVLEEGSKLEEFNELELSPEDKELLEYLQQTKAKITVVGCGGAGNNTITRLKMEGIEGAKTVAINTDAQQLIRTKADKKILIGKKLTRGLGAGGNPKIGEEAAKESAEEIKAAIQDSDMVFITCGLGGGTGTGSAPVVAEISKKIGALTVAVVTLPFVMEGKVRMKNAMEGLERLKQHTDTLVVIPNEKLFEIVPNMPLKLAFKVADEVLINAVKGLVELITKDGLINVDFADVKAVMNNGGLAMIGIGESDSEKRAKEAVSMALNSPLLDVDIDGATGALIHVMGPEDLTLEEAREVVATVSSRLDPNATIIWGATIDENLENTVRVLLVITGVQSRIEFTDTGLKRKKLELTGIPKIGSHHHHHH”, the “soluble on expression in E. coli” value was “soluble”. With “NATNRRDTVLAAMVDAGKLTKSQAKEAASIGMKNRLADTYAGKINDYRYPSYFDAVVNEAIDTYGISEKDIVNNGY” the “soluble on expression in E. coli” value was “not soluble”. In the case of “NVQHQLAQFQQLQQQAQAISVQKQTVEMQINETQKALEELSRAADDAEVYKSSGNILIRVAKDELTEELQEKLETLQLREKTIERQEERVMKKLQEMQVNIQEAMKGAG”, the “soluble on expression in E. coli” value is reported as “soluble”. In the case of “MGHHHHHHSHMSVPRGPIAQWADGAISPNGHRPQLRAASGEDSTEEALAAAAAPWEGGPVPGVDTSPFAKSLGHSRGEADLFDSGDIFSTGTGSQSVERTKPKAKIAENPANPPVGGKAKSPMFPALGEASSDDDLFQSAKPKPAKKTNPFPLLEDEDDLFTDQKVKKNETKSSSQQDVILTTQDIFEDDIFATEAIKPSQKTREKEKTLESNLFDDNIDIFADLTVKPKEKSKKKVEAKSIFDDDMDDIFSTGIQAKTTKPKSRSAQAAPEPRFEHKVSNIFDDPLNAFGGQ”, the “soluble on expression in E. coli” value is reported as “not soluble”. With “FKAHCRRSVEGDTMLSLKAVSPTRLLKNKFYQDVFAAEQRGASVEELRELLGRGRAKQGIFEGDLHEGELEIGQAVSQISHAETVAEIMVDLVDGYKRSLAGMPTEI” the “soluble on expression in E. coli” value was “not soluble”.
